Data as given in patent US20060030527A1 (TRANSTECH PHARMA, published 2006).

Tests used:
BSA = biological target: T1, BSA (UniProt P02769 25-607); experiment: ELISA on coated Maxisorb plates, absorbance at 405 nm
T1 construct: also called BSA coating alone; BSA+wash
Experimental: (§1) Known RAGE ligands were coated onto the surface of Maxisorb plates at a concentration of 5 micrograms per well. Plates were incubated at 4° C. overnight. Following ligand incubation, plates were aspirated and a blocking buffer of 1% BSA in 50 mM imidizole buffer (pH 7.2) was added to the plates for 1 hour at room temperature. The plates were then aspirated and/or washed with wash buffer (20 mM Imidizole, 150 mM NaCl, 0.05% Tween-20, 5 mM CaCl₂ and 5 mM MgCl₂, pH 7.2). […] The fusion protein was added at increasing dilutions of the initial sample. The RAGE fusion protein was allowed to incubate with the immobilized ligand at 37° C. for one hour after which the plate was washed and assayed for binding of the fusion protein. Binding was detected by the addition of an immunodetection complex containing a monoclonal mouse anti-human IgG1 diluted 1:11,000 to a final assay concentration (FAC) of 21 ng/100 μL, a biotinylated goat anti-mouse IgG diluted 1:500, to a FAC of […], and an avidin-linked alkaline phosphatase. […] Binding of the complex to the immobilized fusion protein was quantified by measuring conversion of PNPP to para-nitrophenol (PNP) which was measured spectrophotometrically at 405 nm.

[1] = biological target: T2, Amyloid Beta (1-40) from Biosource (UniProt P05067 672-711); experiment: ELISA, immobilised ligand, dilutions of a 1.082 mg/mL solution
T2 construct: domain: Amyloid Beta (1-40); Immobilised on Maxisorb plates; amyloid beta 1-40 is a fragment of it; also called Abeta; A-beta
Experimental: as §1

[2] = biological target: T2, Amyloid Beta (1-40) from Biosource; experiment: ELISA, ligand coated on Maxisorb plate, fusion protein detected through anti-human IgG1 complex
Experimental: as §1

T1 sequence (P02769 25-607 limits assumed): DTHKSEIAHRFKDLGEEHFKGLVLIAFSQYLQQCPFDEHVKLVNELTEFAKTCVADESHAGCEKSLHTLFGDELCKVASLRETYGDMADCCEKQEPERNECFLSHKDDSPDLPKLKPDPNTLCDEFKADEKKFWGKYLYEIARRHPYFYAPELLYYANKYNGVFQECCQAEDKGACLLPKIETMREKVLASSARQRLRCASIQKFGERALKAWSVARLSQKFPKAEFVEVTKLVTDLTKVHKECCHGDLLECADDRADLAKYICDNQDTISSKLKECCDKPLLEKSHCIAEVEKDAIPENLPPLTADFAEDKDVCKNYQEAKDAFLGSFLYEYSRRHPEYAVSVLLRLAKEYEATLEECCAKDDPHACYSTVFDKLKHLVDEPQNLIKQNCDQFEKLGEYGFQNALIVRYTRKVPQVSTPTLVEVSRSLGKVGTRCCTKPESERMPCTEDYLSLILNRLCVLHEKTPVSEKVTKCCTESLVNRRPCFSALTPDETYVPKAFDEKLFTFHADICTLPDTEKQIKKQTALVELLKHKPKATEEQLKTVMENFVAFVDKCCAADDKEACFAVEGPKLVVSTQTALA
T2 sequence (P05067 672-711 limits assumed): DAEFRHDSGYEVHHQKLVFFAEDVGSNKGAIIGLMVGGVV

binding result (BSA)	binding result [1]	binding result [2]	Binder
no binding	binds		RAGE fusion protein TTP-3000 (Fc fusion, also called TT3; three domain RAGE fusion protein) AQNITARIGEPLVLKCKGAPKKPPQRLEWKLNTGRTEAWKVLSPQGGGPWDSVARVLPNGSLFLPAVGIQDEGIFRCQAMNRNGKETKSNYRVRVYQIPGKPEIVDSASELTAGPSVFLFPPKPKDTLMISRTPEVTCVVVDVSHEDPEVKFNWYVDGVEVHNAKTKPREEQYNSTYRVVSVLTVLHQDWLNGKEYKCKVSNKALPAPIEKTISKAKGQPREPQVYTLPPSRDELTKNQVSLTCLVKGFYPSDIAVEWESNGQPENNYKTTPPVLDSDGSFFLYSKLTVDKSRWQQGNVFSCSVMHEALHNHYTQKSLSLSPGK
no binding		binds	RAGE fusion protein TTP-4000 (Fc fusion, No immunoglobulin hinge; also called TT4; four domain RAGE fusion protein) AQNITARIGEPLVLKCKGAPKKPPQRLEWKLNTGRTEAWKVLSPQGGGPWDSVARVLPNGSLFLPAVGIQDEGIFRCQAMNRNGKETKSNYRVRVYQIPGKPEIVDSASELTAGVPNKVGTCVSEGSYPAGTLSWHLDGKPLVPNEKGVSVKEQTRRHPETGLFTLQSELMVTPARGGDPRPTFSCSFSPGLPRHRALRTAPIQPRVWEPVPLEEVQLVVEPEGGAVAPPSVFLFPPKPKDTLMISRTPEVTCVVVDVSHEDPEVKFNWYVDGVEVHNAKTKPREEQYNSTYRVVSVLTVLHQDWLNGKEYKCKVSNKALPAPIEKTISKAKGQPREPQVYTLPPSRDELTKNQVSLTCLVKGFYPSDIAVEWESNGQPENNYKTTPPVLDSDGSFFLYSKLTVDKSRWQQGNVFSCSVMHEALHNHYTQKSLSLSPGK
